Here are results for 29 molecules from US20260193293A1, “PEPTIDES CAPABLE OF INHIBITING PROTEIN-PROTEIN INTERACTIONS AT GABAB1A SUBUNIT AND USES THEREOF” (UNIVERSITY OF COPENHAGEN, priority 2022, published 2026).

Non-standard residues stand in square brackets, D forms with d. NMeW = CN[C@@H](Cc1c[nH]c2ccccc12)C(=O)O; Cya = N[C@@H](CS(=O)(=O)O)C(=O)O; NMeE = CN[C@@H](CCC(=O)O)C(=O)O; NMeD = CN[C@@H](CC(=O)O)C(=O)O; NMeV = CN[C@H](C(=O)O)C(C)C; NMeS = CN[C@@H](CO)C(=O)O; NMeA = CN[C@@H](C)C(=O)O; Sar = CNCC(=O)O

First the molecules themselves.
B1: EDDSD(N-Me-V)WWGGADTD (peptide)
peptide: Ac-EDDSD[NMeV]WWGGADTD-NH2
SMILES: CC(=O)N[C@@H](CCC(=O)O)C(=O)N[C@@H](CC(=O)O)C(=O)N[C@@H](CC(=O)O)C(=O)N[C@@H](CO)C(=O)N[C@@H](CC(=O)O)C(=O)N(C)[C@H](C(=O)N[C@@H](Cc1c[nH]c2ccccc12)C(=O)N[C@@H](Cc1c[nH]c2ccccc12)C(=O)NCC(=O)NCC(=O)N[C@@H](C)C(=O)N[C@@H](CC(=O)O)C(=O)N[C@H](C(=O)N[C@@H](CC(=O)O)C(N)=O)[C@@H](C)O)C(C)C
B2: EDDSDV(N-Me-W)WGGADTD (peptide)
peptide: Ac-EDDSDV[NMeW]WGGADTD-NH2
SMILES: CC(=O)N[C@@H](CCC(=O)O)C(=O)N[C@@H](CC(=O)O)C(=O)N[C@@H](CC(=O)O)C(=O)N[C@@H](CO)C(=O)N[C@@H](CC(=O)O)C(=O)N[C@H](C(=O)N(C)[C@@H](Cc1c[nH]c2ccccc12)C(=O)N[C@@H](Cc1c[nH]c2ccccc12)C(=O)NCC(=O)NCC(=O)N[C@@H](C)C(=O)N[C@@H](CC(=O)O)C(=O)N[C@H](C(=O)N[C@@H](CC(=O)O)C(N)=O)[C@@H](C)O)C(C)C
B3: EDDSDVW(N-Me-W)GGADTD (peptide)
peptide: Ac-EDDSDVW[NMeW]GGADTD-NH2
SMILES: CC(=O)N[C@@H](CCC(=O)O)C(=O)N[C@@H](CC(=O)O)C(=O)N[C@@H](CC(=O)O)C(=O)N[C@@H](CO)C(=O)N[C@@H](CC(=O)O)C(=O)N[C@H](C(=O)N[C@@H](Cc1c[nH]c2ccccc12)C(=O)N(C)[C@@H](Cc1c[nH]c2ccccc12)C(=O)NCC(=O)NCC(=O)N[C@@H](C)C(=O)N[C@@H](CC(=O)O)C(=O)N[C@H](C(=O)N[C@@H](CC(=O)O)C(N)=O)[C@@H](C)O)C(C)C
B4: e… (peptide)
peptide: Ac-[dE]DDSDVWWGGADTD-NH2
SMILES: CC(=O)N[C@H](CCC(=O)O)C(=O)N[C@@H](CC(=O)O)C(=O)N[C@@H](CC(=O)O)C(=O)N[C@@H](CO)C(=O)N[C@@H](CC(=O)O)C(=O)N[C@H](C(=O)N[C@@H](Cc1c[nH]c2ccccc12)C(=O)N[C@@H](Cc1c[nH]c2ccccc12)C(=O)NCC(=O)NCC(=O)N[C@@H](C)C(=O)N[C@@H](CC(=O)O)C(=O)N[C@H](C(=O)N[C@@H](CC(=O)O)C(N)=O)[C@@H](C)O)C(C)C
B5: (N-Me-E)… (peptide)
peptide: Ac-[NMeE]DDSDVWWGGADTD-NH2
SMILES: CC(=O)N(C)[C@@H](CCC(=O)O)C(=O)N[C@@H](CC(=O)O)C(=O)N[C@@H](CC(=O)O)C(=O)N[C@@H](CO)C(=O)N[C@@H](CC(=O)O)C(=O)N[C@H](C(=O)N[C@@H](Cc1c[nH]c2ccccc12)C(=O)N[C@@H](Cc1c[nH]c2ccccc12)C(=O)NCC(=O)NCC(=O)N[C@@H](C)C(=O)N[C@@H](CC(=O)O)C(=O)N[C@H](C(=O)N[C@@H](CC(=O)O)C(N)=O)[C@@H](C)O)C(C)C
B6: EDDS(N-Me-D)… (peptide)
peptide: Ac-EDDS[NMeD]VWWGGADTD-NH2
SMILES: CC(=O)N[C@@H](CCC(=O)O)C(=O)N[C@@H](CC(=O)O)C(=O)N[C@@H](CC(=O)O)C(=O)N[C@@H](CO)C(=O)N(C)[C@@H](CC(=O)O)C(=O)N[C@H](C(=O)N[C@@H](Cc1c[nH]c2ccccc12)C(=O)N[C@@H](Cc1c[nH]c2ccccc12)C(=O)NCC(=O)NCC(=O)N[C@@H](C)C(=O)N[C@@H](CC(=O)O)C(=O)N[C@H](C(=O)N[C@@H](CC(=O)O)C(N)=O)[C@@H](C)O)C(C)C
B7: E(N-Me-D)… (peptide)
peptide: Ac-E[NMeD]DSDVWWGGADTD-NH2
SMILES: CC(=O)N[C@@H](CCC(=O)O)C(=O)N(C)[C@@H](CC(=O)O)C(=O)N[C@@H](CC(=O)O)C(=O)N[C@@H](CO)C(=O)N[C@@H](CC(=O)O)C(=O)N[C@H](C(=O)N[C@@H](Cc1c[nH]c2ccccc12)C(=O)N[C@@H](Cc1c[nH]c2ccccc12)C(=O)NCC(=O)NCC(=O)N[C@@H](C)C(=O)N[C@@H](CC(=O)O)C(=O)N[C@H](C(=O)N[C@@H](CC(=O)O)C(N)=O)[C@@H](C)O)C(C)C
B8: Ac-ETEFI(Cya)WGPTGDED-NH2 (AJAP-1WT mutant Ala182Cya) (peptide)
peptide: Ac-ETEFI[Cya]WGPTGDED-NH2
SMILES: CC[C@H](C)[C@H](NC(=O)[C@H](Cc1ccccc1)NC(=O)[C@H](CCC(=O)O)NC(=O)[C@@H](NC(=O)[C@H](CCC(=O)O)NC(C)=O)[C@@H](C)O)C(=O)N[C@@H](CS(=O)(=O)O)C(=O)N[C@@H](Cc1c[nH]c2ccccc12)C(=O)NCC(=O)N1CCC[C@H]1C(=O)N[C@H](C(=O)NCC(=O)N[C@@H](CC(=O)O)C(=O)N[C@@H](CCC(=O)O)C(=O)N[C@@H](CC(=O)O)C(N)=O)[C@@H](C)O
B9: EDD(N-Me-S)… (peptide)
peptide: Ac-EDD[NMeS]DVWWGGADTD-NH2
SMILES: CC(=O)N[C@@H](CCC(=O)O)C(=O)N[C@@H](CC(=O)O)C(=O)N[C@@H](CC(=O)O)C(=O)N(C)[C@@H](CO)C(=O)N[C@@H](CC(=O)O)C(=O)N[C@H](C(=O)N[C@@H](Cc1c[nH]c2ccccc12)C(=O)N[C@@H](Cc1c[nH]c2ccccc12)C(=O)NCC(=O)NCC(=O)N[C@@H](C)C(=O)N[C@@H](CC(=O)O)C(=O)N[C@H](C(=O)N[C@@H](CC(=O)O)C(N)=O)[C@@H](C)O)C(C)C
B10: …(N-Me-A)DTD (peptide)
peptide: Ac-EDDSDVWWGG[NMeA]DTD-NH2
SMILES: CC(=O)N[C@@H](CCC(=O)O)C(=O)N[C@@H](CC(=O)O)C(=O)N[C@@H](CC(=O)O)C(=O)N[C@@H](CO)C(=O)N[C@@H](CC(=O)O)C(=O)N[C@H](C(=O)N[C@@H](Cc1c[nH]c2ccccc12)C(=O)N[C@@H](Cc1c[nH]c2ccccc12)C(=O)NCC(=O)NCC(=O)N(C)[C@@H](C)C(=O)N[C@@H](CC(=O)O)C(=O)N[C@H](C(=O)N[C@@H](CC(=O)O)C(N)=O)[C@@H](C)O)C(C)C
B11: EDDSDVWW(N-Me-G)GADTD (peptide)
peptide: Ac-EDDSDVWW[Sar]GADTD-NH2
SMILES: CC(=O)N[C@@H](CCC(=O)O)C(=O)N[C@@H](CC(=O)O)C(=O)N[C@@H](CC(=O)O)C(=O)N[C@@H](CO)C(=O)N[C@@H](CC(=O)O)C(=O)N[C@H](C(=O)N[C@@H](Cc1c[nH]c2ccccc12)C(=O)N[C@@H](Cc1c[nH]c2ccccc12)C(=O)N(C)CC(=O)NCC(=O)N[C@@H](C)C(=O)N[C@@H](CC(=O)O)C(=O)N[C@H](C(=O)N[C@@H](CC(=O)O)C(N)=O)[C@@H](C)O)C(C)C
B12: ED(N-Me-D)… (peptide)
peptide: Ac-ED[NMeD]SDVWWGGADTD-NH2
SMILES: CC(=O)N[C@@H](CCC(=O)O)C(=O)N[C@@H](CC(=O)O)C(=O)N(C)[C@@H](CC(=O)O)C(=O)N[C@@H](CO)C(=O)N[C@@H](CC(=O)O)C(=O)N[C@H](C(=O)N[C@@H](Cc1c[nH]c2ccccc12)C(=O)N[C@@H](Cc1c[nH]c2ccccc12)C(=O)NCC(=O)NCC(=O)N[C@@H](C)C(=O)N[C@@H](CC(=O)O)C(=O)N[C@H](C(=O)N[C@@H](CC(=O)O)C(N)=O)[C@@H](C)O)C(C)C

The target of this assay is Sushi domains (SD1/2) protein of the GABAB1a (GB1a) subunit, recombinant. Kind of assay: FP competition.
Chain of Sushi domains (SD1/2) protein of the GABAB1a (GB1a) subunit, recombinant (Q9Z0U4 29-158): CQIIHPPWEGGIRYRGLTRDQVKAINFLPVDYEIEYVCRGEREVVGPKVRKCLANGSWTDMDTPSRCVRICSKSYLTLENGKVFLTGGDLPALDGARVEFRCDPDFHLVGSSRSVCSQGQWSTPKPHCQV
Regarding Ac-EDDSDVAWGGADTD-NH2, the Ki turned out to be 8790 nM. On the same count and under the same terms, the figure for Ac-E[dD]DSDVWWGGADTD-NH2 [Ed…] is 567 nM. Regarding Ac-EDDS[dD]VWWGGADTD-NH2 [EDDSd…], the Ki turned out to be 1630 nM.

As to B1, the Ki was determined as 12300 nM. On the same count and under the same terms, the figure for B2 is 85600 nM; for B3 it is 1380 nM; for B4 it is 483 nM.

With B5, the Ki was 670 nM. Take Ac-EDDSDVWWGGADAD-NH2: the Ki is 480 nM.

Turning to Ac-EDDSDVWW[dA]GADTD-NH2 [EDDSDVWWaGADTD], the Ki was 8700 nM.

For the molecule Ac-EDD[dS]DVWWGGADTD-NH2 [EDDs…], the Ki was 752 nM. The same measure, in the same setting: the figure for Ac-EDDSDVWWGGADT[dD]-NH2 […d] is 529 nM; for B6 it is 3760 nM. With B7, the Ki came to 655 nM. Regarding B8, the Ki turned out to be 11.8 nM. Ac-ETEFIDWGPTGDED-NH2 [peptide 26 (Ac-…-NH2, AJAP-1WT mutant A182D)]: the fold improved affinity relative to the wild type (AJAP-1WT) came to 3 fold.

As for B9, the Ki amounted to 1670 nM. Consider Ac-EDDSDVWWG[dA]ADTD-NH2 […aADTD], for which the Ki is 1210 nM. For Ac-EDDSDVWWGGADTA-NH2, the Ki was 786 nM.

In the case of B10, the Ki stood at 704 nM. As to B11, the Ki amounted to 18900 nM. As for B12, the Ki worked out at 671 nM. On to Ac-EDDSDVWWGAADTD-NH2, for which the inhibition constant (Ki) was determined as 731 nM. Same read-out and setting: as for Ac-EDDSDVWWGG[dA]DTD-NH2 […aDTD], the figure is 755 nM; as for Ac-EDDSDVWWAGADTD-NH2, 485 nM; as for Ac-ED[dD]SDVWWGGADTD-NH2 [EDd…], 736 nM. Still for that read-out and setting: as for Ac-EDDSDVWWGGAD[dT]D-NH2 […tD], the figure is 469 nM; as for Ac-EDDSDVWWGGAATD-NH2, 653 nM; as for Ac-EDDSDVWWGGA[dD]TD-NH2 […dTD], 637 nM.
